Test results reported in PMC6061780.

Molecular target: Sc eIF4E (residues T25–L213), His6 tag removed (Saccharomyces cerevisiae) (UniProt P07260)
Assay: ITC

Sequence of Sc eIF4E (residues T25–L213), His6 tag removed (Saccharomyces cerevisiae) (P07260 25-213): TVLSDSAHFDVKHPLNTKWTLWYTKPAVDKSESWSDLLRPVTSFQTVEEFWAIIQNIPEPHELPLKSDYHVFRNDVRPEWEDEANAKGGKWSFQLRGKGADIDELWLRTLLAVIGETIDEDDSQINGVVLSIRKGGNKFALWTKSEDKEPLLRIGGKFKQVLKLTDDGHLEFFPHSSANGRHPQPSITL
Sequence of Sc p20 canonical motif (C)-GB1 (domain or fragment) (P12962 whole entry, the tested form may be a part): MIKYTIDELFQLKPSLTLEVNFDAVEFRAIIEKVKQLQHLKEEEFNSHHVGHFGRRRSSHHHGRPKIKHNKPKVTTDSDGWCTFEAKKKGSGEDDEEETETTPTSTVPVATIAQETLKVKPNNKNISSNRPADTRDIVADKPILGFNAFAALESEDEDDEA

Kd [nM]	Substance
70	Sc eIF4G (residues V448–N500; C+L+NC)-GB1 (from UniProt P39935 448-500) (domain or fragment)
2000	Sc eIF4G canonical motif (C)-GB1 (domain or fragment)
20	Sc p20 canonical motif (C)-GB1 (domain or fragment)
